According to paper PMC13079917 (2026):
Several values for one entry are separate records, joined by “and”; a condition that tells them apart may be missing. Equal values may be shown once. Read-outs that look alike come from different tables or passages of the source.

B1: L9 Fab (Fab, V domains shown)
VH: QVKLVESGGGVVQPGRSLRLSCEASGFIFSTYGMHWVRQAPGKGLEWVAVIWFDGSNIYYADSVKGRFTISRDNSKNTVFMQMDSLRAEDTAVYYCHRNFYDGSGPFDYWGQGTLVTVSS
VL: DIQMTQSPSTLSASVGDRVTITCRASQFISRWLAWYQQKPGKAPKLLIYKASSLESGVPSRFSGSGSETHFTLTISSLQPDDVATYYCQEYTSYGRTFGQGTKVEIK

Experiments:
Experiment in all cases: SPR
L9 Fab [1] = target: B1
L9 Fab [2] = target: B1; remark: listed apart in the source
SES-1 [3] = target: SES-1
SES-1 [4] = target: SES-1; remark: listed apart in the source

Row | Binder | koff (L9 Fab [1]) | Kd (L9 Fab [2]) | Kd (SES-1 [3]) | Kd (SES-1 [4])
1 | SES-2 (single epitope scaffold 2) (designed binder) AVEDALKKAEAAGDEAAIARAEILLARVEEAREILANPNVDPAVGWALLAAVAPEIAALAGGSY | 0.014 s⁻¹ | 42 nM | – | –
2 | B1 | – | – | 78 nM and 84 nM | 78 nM
